The target of the assay is PlyCB R66E mutant (streptococcal bacteriophage (C1)) (UniProt Q7Y3F3). Briefly: SEC.

For “PlyCB R66E mutant (from UniProt Q7Y3F3 1-72) (natural protein)”, the stoichiometry N turned out to be 8.

The values are drawn from paper PMC8555655.
